Results: publication doi:10.1101/714493

How the values were obtained:
Assay in all cases: SEC
[1] = biological target: Bile Salt Hydrolase from Enterococcus faecalis, wild type (Enterococcus faecalis)
[2] = biological target: EfBSH E269A (Enterococcus faecalis)
[3] = biological target: EfBSH E269D (Enterococcus faecalis)
[4] = biological target: EfBSH E269Q (Enterococcus faecalis)
[5] = biological target: EfBSH R207A (Enterococcus faecalis)

Q: How did the stoichiometry N [1] turn out when “Bile Salt Hydrolase from Enterococcus faecalis, wild type (enzyme)” was run?
A: 4

Q: Which stoichiometry N [2] does the source give for EfBSH E269A (enzyme) here?
A: 4

Q: EfBSH E269D (enzyme) was tested. Which stoichiometry N [3] did it give?
A: 4

Q: With EfBSH E269Q (enzyme) as the substance, how does the stoichiometry N [4] read?
A: 4

Q: With EfBSH R207A (enzyme) as the substance, how does the stoichiometry N [5] read?
A: 4
